Seven molecules from patent publication US20050009042A1 (AVENTIS PHARMA S A, published 2005) can be followed below.

Sequences and labels used below:
T1: MT2R-Luc, protein from fusion of the melatonin receptor MT2 with luciferase (UniProt P49286 1-362)
T1 construct: whole, on cells; Control fusion protein; also called melatonin-Luc MT2 receptor
T1 sequence (looked up): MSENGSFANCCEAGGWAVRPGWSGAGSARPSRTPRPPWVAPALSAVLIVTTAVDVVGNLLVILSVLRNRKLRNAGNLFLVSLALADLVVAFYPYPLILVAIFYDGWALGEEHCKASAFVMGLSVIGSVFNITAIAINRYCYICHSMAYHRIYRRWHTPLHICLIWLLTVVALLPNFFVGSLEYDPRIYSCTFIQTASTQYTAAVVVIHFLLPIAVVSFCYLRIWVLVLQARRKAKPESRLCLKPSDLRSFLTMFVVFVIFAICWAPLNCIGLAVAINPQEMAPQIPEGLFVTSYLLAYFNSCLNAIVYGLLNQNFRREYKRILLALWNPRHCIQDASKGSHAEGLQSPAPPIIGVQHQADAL

B1: MYO47-Luc (other)
chain: MAGIKALISLSFGGAIGLMFLMLGCALPIYNKYWPLFVLFFYILSPIPYCIARRLVDDTDAMSNACKELAIFLTTGIVVSAFGLPIVFARAHLIEWGACALVLTGNTVIFATILGFFLVFGSNDDFSWQQW
notes: also called MY047-Rluc; not shown: Renilla luciferase (vector pcDNA3-Rluc)
B2: MYO47-YFP (other)
chain: B1 chain
notes: also called MY047-YFP; not shown: YFP (Topaz, vector pcDNA3-YFP)
B3: OB-RGRP-YFP (other)
chain: MAGVKALVALSFSGAIGLTFLMLGCALEDYGVYWPLFVLIFHAISPIPHFIAKRVTYDSDATSSACRELAYFFTTGIVVSAFGFPVILARVAVIKWGACGLVLAGNAVIFLTIQGFFLIFGRGDDFSWEQW
notes: Expressed in HeLa or HEK cells from pcDNA3-OB-RGRP-YFP; also called OB-RGRP tagged with YFP at its C-terminal tail; OB-RGRP-YFB; not shown: YFP coding region from vector pGFPtpz-N1 (Cytogem-Topaze, Packard)
B4: OB-RGRP-Luc (other)
chain: B3 chain
notes: Expressed in cells from pcDNA3-OB-RGRP-Luc; also called OB-RGRP-Rluc; not shown: Renilla luciferase, coding region from vector pRL-CMV (Promega)
B5: 6Myc-OB-RGRP (4TM) (other)
chain: B3 chain
notes: not shown: The N-terminal 6xMyc tag (the 6myc fragment of pCDNA3-RSV-6Myc) and its junction
B6: YFP-OB-RGRP (other)
chain: B3 chain
notes: The construction of this plasmid is not described on its own; only the double fusion YFP-OB-RGRP-Luc is; also called OB-RGRP tagged at the N-terminal with YFP; not shown: YFP (Topaz, from pGFPtpz-N1) at the N-terminus

The target in data set [1] is OB-Rl. The data set can be described thus: cell-based or functional assay.
Data set [2] concerns the target T2, IR-YFP, protein from fusion of the insulin receptor with YFP (UniProt P06213 28-1382).
T2 construct: whole, on cells; Control fusion protein; also called construct of the insulin receptor tagged with YFP; not shown: YFP
The data set can be described thus: BRET in living cells, equimolar coexpression. As for the experimental part: (§1) 48 h after transfection, the COS-7, HeLa or HEK 293 cells expressing the OB-R fusion proteins were detached and washed in PBS. 1-2×10⁵ cells were distributed into wells of optiplate plates (96-well, Packard Instrument Company, Meriden, Conn.) in the presence or absence of the ligands, and incubated at 25° C. Alternatively, the same procedure was carried out with membranes prepared from the cells expressing the various constructs. The substrate, coelenterazine h (Molecular Probes, Eugene, Oreg.), was added at a final concentration of 5 μmol.L⁻¹ and the readings were carried out with a Fusion™ luminometer/fluorimeter (Packard Instrument Company, Meriden, Conn.), which makes it possible to measure luminescence through two filters (luciferase filter: 485±10 nm; YFP filter: 530±12.5 nm). The BRET ratio was defined as the difference in emission at 530 nm/485 nm of the cells cotransfected with the Luc and YFP fusion proteins and the emission at 530 nm/485 nm of the Luc fusion protein transfected alone into the cells. The results are expressed as milliBRET units (mBU), 1 mBRET corresponding to the values of the differences in the ratios multiplied by 1000.
(§2) We used BRET technology to study a possible interaction between OB-R and OB-RGRP in living cells. An energy transfer was constitutively observed in the cells coexpressing the OB-Rₛ-Luc construct and the OB-RGRP-YFP construct, indicating proximity of the interaction partners (FIG. 7). The same results were obtained in cells coexpressing OB-Rₛ-Luc and the MYO47-YFP construct, and also in the reverse orientation: in cells coexpressing OB-RGRP-Luc and OB-Rₛ-YFP, or in cells coexpressing MYO47-Luc and OB-Rₛ-YFP. The specificity of these interactions was confirmed by the lack of energy transfer between OB-Rₛ-Luc, OB-RGRP-Luc, MYO47-Luc and a construct of the insulin receptor tagged with YFP (Boute et al. (2001) Mol Pharmacol 60, 640-645), and also in the reverse orientation: by the lack of energy transfer between a construct of the insulin receptor tagged with Luc and the OB-Rₛ-YFP, OB-RGRP-YFP and MYO47-YFP construct.
Background: Bioluminescence resonance energy transfer reports proximity on the nanometre scale.

For data set [3], the target named is T3, construct of the insulin receptor tagged with Luc (UniProt P06213 28-1382).
T3 construct: whole, on cells; Control fusion protein; also called IR-Luc
The data set can be described thus: BRET in living cells, equimolar coexpression. As for the experimental part: as §1, §2

For data set [4], the target named is T1, MT2R-Luc, protein from fusion of the …. Nature of the data set: BRET in living HEK cells, equimolar coexpression. As for the experimental part:
(§3) Study of the oligomerization of OB-RGRP in live HEK cells, by BRET technology. FIG. 6a: the fusion proteins indicated were coexpressed at an equimolar ratio, and BRET measurement experiments were carried out. FIG. 6b: constant amounts of the plasmid OB-RGRP-Luc were coexpressed with increasing amounts of the plasmid OB-RGRP-YFP and BRET measurements were carried out. MT2R-Luc, protein from fusion of the melatonin receptor MT2 with luciferase.
as §1, with “The BRET ratio was defined as the difference in emission at 530 nm/485 nm of the cells cotransfected with the Luc and YFP fusion proteins and the emission at 530 nm/485 nm of the Luc fusion protein transfected alone into the cells.” left out, “1000. […]” for “1000.”

Data set [5] concerns the target B4. The data set can be described thus: BRET in living HEK cells; the signal also rises hyperbolically to saturation with the OB-RGRP-YFP/OB-RGRP-Luc ratio. As for the experimental part: as §3
as §1, with “The BRET ratio was defined as the difference in emission at 530 nm/485 nm of the cells cotransfected with the Luc and YFP fusion proteins and the emission at 530 nm/485 nm of the Luc fusion protein transfected alone into the cells.” left out, “1000. […]” for “1000.”

Data set [6] concerns the molecule itself. The data set can be described thus: SDS-PAGE and anti-YFP immunoblot of HeLa cell lysates, with or without DSP crosslinker; self-association. As for the experimental part: (§4) Study of the oligomerization of OB-RGRP with SDS-PAGE experiments and immunoprecipitations. FIG. 4a: the cells expressing the fusion proteins indicated were treated or not treated with 2 mmol.L⁻¹ dithiobis(succinimidyl propionate) (DSP) in PBS (1×, pH7.4) in order to crosslink the protein complexes. The proteins were separated by SDS-PAGE and the proteins from fusions with YFP were detected using a specific anti-YFP antibody. FIG. 4b: the cells expressing the construct 6Myc-OB-RGRP were solubilized with 1% of digitonin or 5% of SDS and the solubilized material was immunoprecipitated with an anti-myc antibody. The precipitates were subjected to separation by SDS-PAGE and the proteins tagged with myc were detected with an anti-myc antibody.
(§5) The total lysates were prepared by washing the cells once with cold PBS (pH 7.4) and denatured by adding loading buffer (30 mmol.L⁻¹ Tris HCl, pH 6.8, 1% glycerol, 5% SDS, 50 mmol.L⁻¹ DTT and 0.05% bromophenol blue). The total lysates or the immunoprecipitates were incubated for 10 minutes at 90° C. and then loaded onto 10% acrylamide gel for separation by electrophoresis (SDS-PAGE).
OB-RGRP was tagged with YFP at its C-terminal tail and expressed in HeLa cells. The proteins were separated by polyacrylamide gel electrophoresis under denaturing conditions (SDS-PAGE) and immunoblotting experiments were carried out with an anti-YFP antibody. […]

Data set [7] deals with the molecule itself. Nature of the data set: anti-myc immunoprecipitation, SDS-PAGE and anti-myc blot; self-association.
The target of data set [8] is B4. Nature of the data set: BRET in living HEK cells, equimolar coexpression. As for the experimental part: as §3
as §1, with “The BRET ratio was defined as the difference in emission at 530 nm/485 nm of the cells cotransfected with the Luc and YFP fusion proteins and the emission at 530 nm/485 nm of the Luc fusion protein transfected alone into the cells.” left out, “1000. […]” for “1000.”

Data set [9] deals with the molecule itself. Nature of the data set: SDS-PAGE and anti-YFP immunoblot; self-association. As for the experimental part:
as §4, §5
(In general: Immunoblotting shows a protein as a band on a membrane.)

On to leptin (ligand), for which, in [1], the activation of a luciferase reporter gene under STAT3-response elements, EC50 stood at 50 pM; the activation of a luciferase reporter gene under STAT5-response elements, EC50 was found to be 50 pM; the increase in the basal activation of the reporter gene for STAT3 was found to be 1.5 fold.
Take B1: the binding result in data set [2] is on record as “no binding”.
Turning to B2, the binding result in data set [3] was “no binding”.
Consider B3, for which the binding result in [4] is given as “no binding”; in data set [5], “binds”; in [6], “binds”; in data set [3] it was “no binding”.
Take B4: the binding result in [2] was “no binding”.
Regarding B5, the binding result in data set [7] is given as “binds”.
In the case of B6, the binding result in data set [8] and in [9] was “binds” throughout.
